{"source": "patent US20190177709", "assay_in_all_cases": "cell_activity", "key": {"[1]": {"molecular_target": "ZFN 65459 (left) F1 Qm14 Qm5, F3 Qm5, F5 Qm5 (R to Q) (synthetic) (UniProt P14870)", "settings": "with 65526, L:R 60:15 ug RNA, CD34+ cells"}, "[2]": {"molecular_target": "ZFN 65549 (right) F1 Qm5, F2 Qm5, F3 Qm5, F4 Qm5 (R to Q); FokI K525S (synthetic) (UniProt P14870)", "settings": "with 63014, 60:60 ug RNA, CD34+ cells; Table 3 gives 79.82"}, "[3]": {"molecular_target": "ZFN 65526 (right) F1 Qm5, F2 Qm5, F4 Qm5, F5 Qm5 (R to Q); FokI R416S (synthetic) (UniProt P14870)", "settings": "with 63014, L:R 60:15 ug RNA, CD34+ cells"}, "[4]": {"molecular_target": "ZFN 65550 (right) F1 Qm5, F2 Qm5, F4 Qm5, F5 Qm5 (R to Q); FokI K525S (synthetic) (UniProt P14870)", "settings": "with 63014, 60:60 ug RNA, CD34+ cells; Table 3 gives 79.96"}}}
{"sequence": "AAAGCAACTGTTAGCTTGCACTAGACTA (double strand) [BCL11A +58 left half-site]", "values": [{"measurement": "activity", "setting": "[1]", "value": 76.9, "unit": "% indels"}]}
{"sequence": "CACAGGCTCCAGGAAGGGTTTGGCCTCT (double strand) [BCL11A +58 right half-site]", "values": [{"measurement": "activity", "setting": "[2]", "value": 80, "unit": "% indels"}, {"measurement": "activity", "setting": "[3]", "value": 81.2, "unit": "% indels"}, {"measurement": "activity", "setting": "[4]", "value": 79.8, "unit": "% indels"}]}
